The target in the test is maize VIVIPAROUS-1 (VP1) B3-domain transcription factor (maize) (UniProt P26307). Put plainly: cell-based or functional assay.
Sequence of UniProt P26307 (P26307 whole entry): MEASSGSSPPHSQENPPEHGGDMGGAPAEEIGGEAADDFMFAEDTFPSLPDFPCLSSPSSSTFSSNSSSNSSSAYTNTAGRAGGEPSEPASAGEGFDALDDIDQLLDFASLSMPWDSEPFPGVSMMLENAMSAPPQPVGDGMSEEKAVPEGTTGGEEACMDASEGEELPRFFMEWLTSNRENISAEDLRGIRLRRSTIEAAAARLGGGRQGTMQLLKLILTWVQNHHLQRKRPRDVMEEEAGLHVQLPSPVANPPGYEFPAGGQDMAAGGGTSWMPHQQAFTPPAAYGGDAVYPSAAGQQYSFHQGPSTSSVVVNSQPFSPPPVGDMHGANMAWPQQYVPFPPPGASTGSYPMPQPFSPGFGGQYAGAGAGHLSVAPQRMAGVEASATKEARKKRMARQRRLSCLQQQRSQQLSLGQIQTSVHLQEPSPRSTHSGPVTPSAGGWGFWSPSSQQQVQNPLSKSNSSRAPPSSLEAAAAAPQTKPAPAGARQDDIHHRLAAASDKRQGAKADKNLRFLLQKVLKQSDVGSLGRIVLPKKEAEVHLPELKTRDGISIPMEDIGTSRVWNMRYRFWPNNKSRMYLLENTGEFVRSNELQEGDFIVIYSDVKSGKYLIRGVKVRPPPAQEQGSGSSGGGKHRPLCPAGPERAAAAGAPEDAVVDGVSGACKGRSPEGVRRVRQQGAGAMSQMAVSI

Consider “ABF3 (ABA-Response Element-Binding Factor 3) (from UniProt Q9M7Q3 1-454)”, for which the ABA-inducible Em-GUS reporter gene expression, transiently co-transformed rice protoplasts; synergy relative to that of ABI5 with VP1 came to 2 fold.

The record behind these values is patent US20050193443A1.
